Publication PMC10531801

System: Gp49 (Bacillus phage SPO1)
Experiment: SPR
Details: EMSA: 20 mM Tris, 50 mM NaCl, pH 7.5, 30 min at 4 C, 2% agarose in 0.5x TBE; SPR: Biacore T100, CM5, 25 C, buffer not stated

**Q.** How did the Kd turn out when AUGAAUAGUUAAACAACGUGG [ssRNA] was run?
**A.** Its Kd is 1860 nM.
